Measurements taken from publication PMC5508000, “Identification of the Components Involved in Cyclic Di-AMP Signaling in Mycoplasma pneumoniae” (Frontiers in Microbiology, 2017).

Tests used:
KtrC (MPN461) = biological target: T1, KtrC (MPN461) (Mycoplasmoides pneumoniae, UniProt P75322); experiment: pull-down on c-di-AMP agarose, elution with free c-di-AMP, MS identification; assay type: binding; details: labelled compound: immobilised 2'-AHC-c-di-AMP agarose, eluted with 1 mM free c-di-AMP; cell extract; pH 7.5, 4 °C
T1 construct: gene MPN_461; native protein from M. pneumoniae cell extract, identified by mass spectrometry
T1 sequence (P75322 1-231): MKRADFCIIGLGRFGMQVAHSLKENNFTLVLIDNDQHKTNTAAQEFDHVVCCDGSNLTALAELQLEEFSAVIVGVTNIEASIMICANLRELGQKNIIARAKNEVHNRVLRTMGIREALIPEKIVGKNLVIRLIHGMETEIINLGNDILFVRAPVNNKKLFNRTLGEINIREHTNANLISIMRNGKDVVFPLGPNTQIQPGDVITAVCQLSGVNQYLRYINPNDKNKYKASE

[1] = tested on: O=[N+]([O-])c1ccc(OP(=O)(O)Oc2ccc([N+](=O)[O-])cc2)cc1; experiment: OD410 nitrophenol release, microplate; assay type: biochemical, Mycoplasmoides pneumoniae; details: MnCl2 0.1 mM, 100 mM Tris-HCl pH 8.3, 10 mM NaCl, 37 °C
From the text: OD410 nitrophenol release, microplate on MPN549 (PdeM)

[2] = substrate: O=[N+]([O-])c1ccc(OP(=O)(O)Oc2ccc([N+](=O)[O-])cc2)cc1; experiment: OD410 nitrophenol release, microplate; assay type: biochemical, Mycoplasmoides pneumoniae; details: MnCl2 0.1 mM, 100 mM Tris-HCl pH 8.3, 10 mM NaCl, 37 °C; remark: listed apart in the source
From the text: OD410 nitrophenol release, microplate on MPN140 (NrnA)

[3] = substrate: O=[N+]([O-])c1ccc(OP(=O)(O)Oc2ccc([N+](=O)[O-])cc2)cc1; experiment: OD410 nitrophenol release, microplate; assay type: biochemical, Bacillus subtilis; details: MnCl2 0.1 mM, 100 mM Tris-HCl pH 8.3, 10 mM NaCl, 37 °C
From the text: OD410 nitrophenol release, microplate on GdpP

Nc1ncnc2c1ncn2[C@@H]1O[C@@H]2COP(=O)(O)O[C@H]3[C@@H](O)[C@H](n4cnc5c(N)ncnc54)O[C@@H]3COP(=O)(O)O[C@H]2[C@H]1O [c-di-AMP]
pull-down on c-di-AMP agarose, elution with free c-di-AMP, MS identification (KtrC (MPN461)): c-di-AMP-binding proteins were eluted with free c-di-AMP

MPN549 (PdeM) (Mycoplasmoides pneumoniae M129)
Km [1]: 600 µM

B1: MPN140 (NrnA) (Mycoplasmoides pneumoniae M129) (protein)
chain: MNSQVHRKGSIAEAVSAIQAHDKIVIFHHIRPDGDCLGAQHGLARLIQTNFPHKQVFCVGDPKHNFPWLEMVFTPKEQITPELMQQALAVIVDANYKERIECRDLLDQNQFKAVLRIDHHPNEDDLNTTHNFVDASYIAAAEQVVDLAVQAKWKLSPPAATALYLGIYTDSNRFLYSNTSWRTLYLGSMLYRAQANIAKIHDELNHTSLKDIQFKQYVFKNFQTFQNVIYFVADKKFQKKLKVTPLECARVNILANIEQFHIWLFFIEEGKNHYRVEFRSNGINVREVALKYGGGGHIQASGAVLKSKRDIIRVVQDCQKQIAV
Km [2]: 1600 µM
kcat [2]: 3.67e-06 s⁻¹

B2: GdpP (Bacillus subtilis subsp. subtilis str. 168) (protein)
chain: PIGIMLFNDQYYIEWANPFLSSCFNESTLVGRSLYDTCESVVPLIKQEVESETVTLNDRKFRVVIKRDERLLYFFDVTEQIQIEKLYENERTVLAYIFLDNYDDVTQGLDDQTRSTMNSQVTSLLNAWAQEYGIFLKRTSSERFIAVLNEHILTELENSKFSILDEVREKTSFDGVALTLSVGVGASVSSLKELGDLAQSSLDLALGRGGDQVAIKLPNGKVKFYGGKTNPMEKRTRVRARVISHALKEIVTESSNVIIMGHKFPDMDSIGAAIGILKVAQANNKDGFIVIDPNQIGSSVQRLIGEIKKYEELWSRFITPEEAMEISNDDTLLVIVDTHKPSLVMEERLVNKIEHIVVIDHHRRGEEFIRDPLLVYMEPYASSTAELVTELLEYQPKRLKINMIEATALLAGIIVDTKSFSLRTGSRTFDAASYLRAKGADTVLVQKFLKETVDSYIKRAKLIQHTVLYKDNIAIASLPENEEEYFDQVLIAQAADSLLSMSEVEASFAVARRDEQTVCISARSLGEVNVQIIMEALEGGGHLTNAATQLSGISVSEALERLKHAIDEYFEGGVQR
notes: cytoplasmic portion, residues 84-659, C-terminal Strep-tag, expressed in E. coli BL21(DE3), plasmid pGP2720
Km [3]: 1450 µM
